# The nanobody polyreactivity screen of Harvey et al. (2022)
# Test: yeast display, Sf9 membrane polyspecificity reagent, FACS + sequencing; frameworks hold sequencing errors
# Outline: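 After 36–48 hours of galactose induction, yeast (Saccharomyces cerevisiae BJ5465) displaying a synthetic nanobody library were stained at 4 °C for 1 hour with 10% biotinylated, detergent-solubilized Sf9 membrane reagent. Streptavidin microbeads enriched the stained cells before FACS sorting into low and high (top ~1%) gates on anti-HA and streptavidin fluorescence. Each clone's polyreactivity label reflects its gate of origin.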
row,Sequence,polyreactivity (PSR sort gate)
1,QVQLVESGGGLVQAGGSHRLSCAASGSIFKRNAMRSYRQAPGKERELVAAISRSGGSTYYADSVKGRFTISRDFAKNTVYLQMNSLKPEDTAVYYCDARRKLGYGSENDYWGQGTQVTVSS,high polyreactivity
2,QVQLVESGGGLVQAGGSHRLSCAASGSIFRGYAMGWNRHAPRKERELVASITWSSGSTYYADSVKGRFTISRDNAKITVYLQMNSLKPEDTAVYDCAADVEYWSYEFNYWGQGTQVTVSS,low polyreactivity
3,QVQLVESGGGLVQAGGSHRLSCAASGSIFRSNTMGWYRQAPGKERELVAAITWRRGSTYYADSVKGRFTISRDNAKNTVYLQMNSLKPEDTAVYDCNALYVSRDDYWGQGTQVTVSS,high polyreactivity
4,QVQLVESGGGLVQAGGSHRLSCAASGSIFSWYAMGWYRQAPGKVRELVAAITWTRGSTYYADSVKGRFTISRDTANNTVYLQMKSLKPDDSAVYYCAARRVVYRYYWYSAYVYWGQGTQVTVSS,high polyreactivity
5,QVQLVESGGGLVQAGGSHRLSCAASGSIFTRNVMGWYRQAPGKERELVAAITSAGSTYYADSVKGRFTISRDNAKNNVYLQMTSLNPEDTAVYNCDAKVYYPYLFTSYDYWGQGTQVTVSS,high polyreactivity
6,QVQLVESGGGLVQAGGSHRLSCAASGSIFWSYAMGWYRQAPGKARELVASISRRGGSTSYADSVKGRFTISRDNAKNTVYLQMNSLKPEDTAVYYCNAYGRQNHYYWGQGTQVTVSS,high polyreactivity
7,QVQLVESGGGLVQAGGSHRLSCAASGSTFEIYAMGWYRQAPGKERELVAAISSGGSTNYADSVKGRFTISRDNAKNSVYLQMNSLKPEDTAVYYCVYAIQFDYWGQGTQVTVSS,low polyreactivity
8,QVQLVESGGGLVQAGGSHRLSCAASGSTFEYYAMGWYRQAPGKERELVAAITTSGGITYYADSVKGRFTISRDNAKNTVYLQMNSLKPEDTAVYYCNADAVPFPTLVTYLYDYWGQGTQVTVSS,low polyreactivity
9,QVQLVESGGGLVQAGGSHRLSCAASGSTFGSNAMGWYRQAPGKERELVAARTIGGSTNYADSVKGRFTISRDNAKNTVYLEMTSLKPEETAVYYCNADPQQSKLWTYFFGFPGYYWGQGTQVTVSS,low polyreactivity
10,QVQLVESGGGLVQAGGSHRLSCAASGSTFLINAMGWYRQAPGKERELVAAISRDGSTNYADSVKGRFTISRDNAKNTVYLQMNSLKPDDTAVYYCAADEQAYYVRRFDYWGEGTQVTVSS,low polyreactivity
11,QVQLVESGGGLVQAGGSHRLSCAASGSTFWGYTMRWYRQAPGKERELVAAITRSSGRTYYADSVKGRFTISRDNAKITVYLQMNSLKPEETAVYYCNAAAVGRRTWSPYDYWGQGTQVTVSS,high polyreactivity
12,QVQLVESGGGLVQAGGSHRLSCAASGSTIAGNAMGWYRQAPGKERELVAVITRGGSTNYADSVKGRFTISRDNAKNTVYLQLNSLKPEDTAVYYCARYRFLLDYWGGGYYWGQGTQVTVSS,high polyreactivity
13,QVQLVESGGGLVQAGGSHRLSCAASGYIFQWNAMGWYRQAPGKERELVATISRRGGSTYYADSVKGRFTISRDNAKNTVYLQMNSLKPEDTAVYYCNAVFGSYKDYGYWGQGTQVTVSS,low polyreactivity
14,QVQLVESGGGLVQAGGSHRLSCAATGFTFSYYSMGWYRQAPGKERELVAAITSSAGSTYYADTVKGRFTISRDNAKNTVYLQMNSLKPEDTAVYYCNAVYSKLNGGYDYWGQGTQVTVSS,low polyreactivity
15,QVQLVESGGGLVQAGGSHRLSCASSGRTLLAYAMGWYIQAPGKEREFVDAISSRGVRTYYADSVKGRFTISRDNANNTVYLQMNSLKPEDTAVYYCASRGTKSIKDVPGIRYGYWGQGTQVTVSS,high polyreactivity
16,QVQLVESGGGLVQAGGSHRLSCSASGLTFSYYAMGGYRQEPGKERELVAAITRTGDRTYYADSVKGRFTISRDNAKNTVYLQMNSLKPEDTAVYYCAAKWRIVGSRQWYDYWGQGTQVTVSS,high polyreactivity
17,QVQLVESGGGLVQAGGSHRLSCSASGSIIFYYAMGWDRQAPGKEREFVAAITRSGVRTYYADSVKGRFTISRDNAKNTVYLQMNSLKPEDTAVYYCNADYGFYRPVLMGYWGQGTQVTVSS,low polyreactivity
18,QVQLVESGGGLVQAGGSIRLICAASGFTFSRYAMGWYRQAPGKERELVAVISSSGSRTYYADSVKGRFTISRDNAKNTVYLQMNSLKPEDTAVYYCAAKSRPRYYGTEPFDSWGQGTQVTVSS,high polyreactivity
19,QVQLVESGGGLVQAGGSIRLSCAASGFIFRGNAMGWYRQAPGKERELVARISGSGDSTYYADSVKGRFTISRDNAKNTVYFQMNSQKPEATEVYDCNADVFPGVEAYDSTIEYYSWGQGTQVTVSS,low polyreactivity
20,QVQLVESGGGLVQAGGSIRLSCAASGITFTLYAMGWYRQAPGKEMELVAAITISAGSTYYADSVKGRFTISRDNAKNTVYLQINSLKPEDTAVYYCAAESYGSWYYYWGQGTQVTVSS,high polyreactivity

row,Sequence,polyreactivity (PSR sort gate)
1,QVQLVESGGGLVQAGGSIRLSCAASGITFVGNAMGWYRQAPGKERELVASISSGASTNYADSVKGRFTISRDNAKNTVYLQMNSLKPEDTAVYYCAAEGSLEGWDFDSWGQGTQVTVSS,low polyreactivity
2,QVQLVESGGGLVQAGGSIRLSCAASGLIFRYYTMGWYRQAPGKERELVATITKSGSSTYYADSVKGRFTISRDNAKNTVYLQMNSLKPEDTAVYYCAARVTRRYDYWGQGTQLTVSS,high polyreactivity
3,QVQLVESGGGLVQAGGSIRLSCAASGNIFVSYAMGWYRQAPAKERELVAAISKSGGSTYYADSVKGRFTISRDNAKNTVYLQMNSLKPEDTAVYYCAARWYNRVKYQKYNYWGQGTQVTVSS,high polyreactivity
4,QVQLVESGGGLVQAGGSIRLSCAASGRIFYPYAMGWYRPAPGKDRELVAAIRRSGVDTYYADSVKGRFTISRDNAKQTVYLQMNSLKPEDTAVYYCAADPYWFFAHYDSWGQGTQVTVSS,low polyreactivity
5,QVQLVESGGGLVQAGGSIRLSCAASGRISTYYTMGWYRQAPGKERELVAAISWSGTSTYYADSVKGRFTISRDNAKNTVYLQMNSLKPEDTAVYYCNARWRYPLDSVTDDYWGQGTQVTVSS,high polyreactivity
6,QVQLVESGGGLVQAGGSIRLSCAASGSIFGSNAMGWYRQAPGKERELVDAISGSGGSTNYADSVKGRFTISRDNAKNTVYLQMNSLKAEDTAVYYCAVPSKATGSASTSSGIFDSWGQGTQVTVSS,low polyreactivity
7,QVQLVESGGGLVQAGGSIRLSCAASGSIFRPYVMGWSRPAPGKERELVAAISSRGGDTYYADYVKGRFTISRDYAKNTVNVQMISLKPEDTAVYYCNARYYTSYDYWGQGSQVTVSS,low polyreactivity
8,QVQLVESGGGLVQAGGSIRLSCAASGSTFAKNAMGWYRQAPGKERELVAAISRGGNTYYADSGKGRFTISRDNAKNTVYLQMNSLKPEDTAVYYCSKLPFTRTYLGSLYDYWGQGTQVTVSS,high polyreactivity
9,QVQLVESGGGLVQAGGSIRLSCAASGSTFDPYAMGWYRQAPGKEREVVAAISGSRGGSTNYADSVKGRFTISRDNAKNTVYLQMNSLKQEDTAVFYCNARFSYRNGHYYRYYYGGQGTQVTVSS,high polyreactivity
10,QVQLVESGGGLVQAGGSIRLSCAASGSTFDYYAMGWYRQAPGKDRELVAAITTSGSSTFYADSVKGRFTIARDNAKNTVYVQMNSLKPEDTADYYCAAVFRWARQRWLDYWGQGTQVTVSS,high polyreactivity
11,QVQLVESGGGLVQAGGSIRLSCAASGSTFLIKAMGWYRQAPGKERELDASINRRGTSTFYADSVKARFTISRDNAKNTVYLQMNSLKPDDTAVYYCNAYPGAAIRSTGRYDYWGQGTQVTVSS,low polyreactivity
12,QVQLVESGGGLVQAGGSIRLSCAASGSTFRGYSMGWYRQAPGKERELVAAISSRGARTHYADSVKGRFTISRDNSKNTVYLQMNCLKPEDTAVYDCAKVWVRSGRRKMDYWGQGTQVTVSS,low polyreactivity
13,QVQLVESGGGLVQAGGSIRLSCAASGSTFVWNAMGWYRQAPGKERELVAAISSSGGSTYYADSVKGRFTISRDNAKNTVYLQMNSLKPEDTAVYYCAAYYGRRRFGYWGQGTQVTVSS,high polyreactivity
14,QVQLVESGGGLVQAGGSIRLSCAASGYILGRYAMGWYRQAPGKERELVAAITSGGSTYYADSVKGRFTISRDNAKNSVSLQMNSLKPEDTAVYYCAAYTRYWSYGYWGQGTQVTVSS,high polyreactivity
15,QVQLVESGGGLVQAGGSIRLSCAASVSIQTRNAMGWYRQAPGKERELVAAISRGGSTTYADSVKGRFTISRDNAKNTVYLQMNSLKPEDTAVYYCAASDYYVLSRRTRMDYWGQGTQVTVAS,high polyreactivity
16,QVQLVESGGGLVQAGGSIRLSCADSGIIFQANAMGWYRQAPRKERELVAGISRGSSTNYADSVKGRFTISLDNAKNTVYLQMNSLKPEDTAVYYCSAGFYYRPFYGSSHSYGYWGQGTQVTVSS,low polyreactivity
17,QVQLVESGGGLVQAGGSIRLSCASSGSTFTIYAMGWYRPAPGKERELVAAISGTGGTKYADSVKGRFTISRDNAKNTVYLQMNSLKPEDTAVYYCAVGLVPLRDGWHFYYEFDSWGQGTQVTVSS,low polyreactivity
18,QVQLVESGGGLVQAGGSIRLTCAASGSTFGKYAMGWYRQAPGKERELVARIDSGDGTYYADSLKGRFTISRDNAKNTVYLKMNSLKAEDTAVYYCAAGYGARRLTYFWPQYARYDYWGQGTQVTVSS,high polyreactivity
19,QVQLVESGGGLVQAGGSLCLSCAASGFIFEFYTMGWYRQAPGKERELVAAITNGDSTNYADSVKGRFTISRDNAKNTVYLQMNSLKPEDTAVYYCAADGKGETEYSSHPGWAFDYWGQGTQVTVSS,low polyreactivity
20,QVQLVESGGGLVQAGGSLCLSGAASGITFRFYAMGWYRQAPGKERELVAAISWSGGRTYYADSVKWRFTISRDNAKNTVYLQMNSLKPEDTAVYYCAAVASSVPGYDYWGQGTQVTVSS,low polyreactivity
